Laboratory results as given in patent publication US8419708B2, “Transdermal drug administration apparatus having microneedles” (Hisamitsu Pharmaceuticals Co., Inc., priority 2006, dated 2013).

What was measured:
Type in all cases: in vitro ADME, hairless mice
[1] = Skin permeation with calcein sodium coating and dissolving solution in combination
Experimental: A transdermal drug administration apparatus having microneedles of FIG. 9 was used. 70 mg of calcein sodium as a drug was mixed with 930 μL of a 5% aqueous polymer (polyvinyl pyrrolidone, dextran) solution. The whole surface of microneedles was coated with 25 μL of the solution. The applied solution was dried at room temperature for 12 hours. Moreover, no polymer was added to a coating agent containing only water.
(§1) To measure the amount of permeation, the skin was ablated from the trunks of hairless mice and attached to vertical acrylic cells (2.54 cm^2) with the dermis facing a receptor layer. The cells were loaded in a thermostat set to 37° C. The transdermal drug administration apparatus having microneedles of the present invention was affixed to the stratum corneum. Sampling was conducted at a speed of 5.5 mL/hr. after 1 hour and 2 hours and subsequently at 2-hour intervals until the 6th hour. A phosphate-buffered saline (PBS) was used in the receptor layer. A drug content in the receptor solution obtained each time was measured with a fluorophotometer (excitation: 485, fluorescence: 538).
(§2) Animal type: hairless mice (n=3)
(§3) Receptor solution: 4 mL of PBS (Sampling volume: 200 μL/time)
(§4) Area: 2.54 cm^2 (however, the M.N substrate itself is 1 cm^2)
(§5) Dissolving solution: a saline was added dropwise from a dissolving solution reservoir.

[2] = Skin permeation with drug-coated microneedles and dissolving solution in combination (vertical acrylic cells); settings: FIG. 12
Experimental: A transdermal drug administration apparatus having microneedles of FIG. 9 was used. 30% aqueous solution was prepared with 100 mg of BSA (bovine serum albumin) and […] of FITC-BSA (fluorescently labeled bovine serum albumin) as drugs and 350 μL of water and used as a mother liquid to prepare 10% and 20% aqueous solutions. The whole surface of microneedles was coated with each of the prepared 10 to 30% aqueous solutions in an amount of 30 μL/patch. The applied solution was dried at room temperature for 12 hours to prepare 3 kinds in total of coated microneedles (→3 mg/patch, 6 mg/patch, and 9 mg/patch) (FIG. 12).
The drug injection models used as controls are shown (FIG. 13), 15 μL of a 20% aqueous drug (FITC-BSA) solution was added to a dissolving solution without coating microneedles with the drug, and after coating with a 5% aqueous PVA203 solution in an amount of 30 μL/patch, the drug was added.
as §1, with “8th” for “6th”
as §2, §3, §4, §5
PVA203: polyvinyl alcohol (partially saponified, polymerization degree: 300, KURARAY CO., LTD.)

[3] = Skin permeation with drug coating-water-soluble polymer and dissolving solution in combination; settings: FIG. 14; for skin permeability: 20 μL dissolving solution in combination
Experimental: A transdermal drug administration apparatus having microneedles of FIG. 9 was used. 400 mg of BSA (bovine serum albumin) and 400 mg of FITC-BSA (fluorescently labeled bovine serum albumin) as drugs were dissolved in 5 mL of water. Likewise, 800 mg of a polymer (PEO, PVA117) was dissolved in 5 mL of water. Both of the solutions were mixed in equal amounts to prepare a coating solution. The whole surface of microneedles was coated with 25 μL of the coating solution. The applied solution was dried with a drier for 30 minutes. Moreover, no polymer was added to a coating agent containing only water.
as §1, with “8th” for “6th”, “496,” for “485,”, “517).” for “538).”
as §2
Receptor solution: 4 mL of PBS (Sampling volume: 500 μL/time)
as §4, §5
PEO: polyethylene oxide (molecular weight: 900,000, concentration: 2.5%)
PVA117S: polyvinyl alcohol (completely saponified, KURARAY CO., LTD.)

permeability-promoting effects by dropwise addition of the dissolving solution ([1]; dextran used in the coating) | permeability-promoting effects by dropwise addition of the dissolving solution ([1]; polyvinyl pyrrolidone used in the coating) | Compound | permeability-promoting effects by dropwise addition of the dissolving solution ([1]; regardless of the presence or absence of the polymer in the coating, FIGS. 15-17) | effect of using the dissolving solution in combination ([2]; amount of drug coating 3 mg (of 3, 6 and 9 mg), dissolving solution fixed to 20 μL) | synergistic effect brought about by the dissolving solution ([2]; amount of drug coating 9 mg, dissolving solution fixed to 20 μL) | skin permeability ([2]; drug-coated microneedles, 20 μL dissolving solution (saline) used in combination) | skin permeability ([3]; only water, no polymer in coating composition) | skin permeability ([3]; polyethylene oxide (molecular weight 900,000) mixed into coating composition) | skin permeability-promoting effects brought about by the addition of the dissolving solution ([3]; poorly soluble polymer PVA117 mixed into coating composition)
promoting effects were also observed | promoting effects were also observed | O=C(O)CN(CC(=O)O)Cc1cc2c(cc1O)Oc1cc(O)c(CN(CC(=O)O)CC(=O)O)cc1C21OC(=O)c2ccccc21 [calcein sodium] | Permeability-promoting effects were observed | – | – | – | – | – | –
– | – | FITC-BSA: fluorescently labeled bovine serum albumin, used as model drug in the microneedle coating (mixed with BSA) | – | highest | no synergistic effect | increased | increased | increased | no skin permeability-promoting effects
